Reference: IntAct's records for PubMed 22493500

B1: Colicin-A (Citrobacter freundii), P04480 (parent)
chain: MPGFNYGGKGDGTGWSSERGSGPEPGGGSHGNSGGHDRGDSSNVGNESVTVMKPGDSYNTPWGKVIINAAGQPTMNGTVMTADNSSMVPYGRGFTRVLNSLVNNPVSPAGQNGGKSPVQTAVENYLMVQSGNLPPGYWLSNGKVMTEVREERTSGGGGKNGNERTWTVKVPREVPQLTASYNEGMRIRQEAADRARAEANARALAEEEARAIASGKSKAEFDAGKRVEAAQAAINTAQLNVNNLSGAVSAANQVITQKQAEMTPLKNELAAANQRVQETLKFINDPIRSRIHFNMRSGLIRAQHNVDTKQNEINAAVANRDALNSQLSQANNILQNARNEKSAADAALSAATAQRLQAEAALRAAAEAAEKARQRQAEEAERQRQAMEVAEKAKDERELLEKTSELIAGMGDKIGEHLGDKYKAIAKDIADNIKNFQGKTIRSFDDAMASLNKITANPAMKINKADRDALVNAWKHVDAQDMANKLGNLSKAFKVADVVMKVEKVREKSIEGYETGNWGPLMLEVESWVLSGIASSVALGIFSATLGAYALSLGVPAIAVGIAGILLAAVVGALIDDKFADALNNEIIRPAH
partner: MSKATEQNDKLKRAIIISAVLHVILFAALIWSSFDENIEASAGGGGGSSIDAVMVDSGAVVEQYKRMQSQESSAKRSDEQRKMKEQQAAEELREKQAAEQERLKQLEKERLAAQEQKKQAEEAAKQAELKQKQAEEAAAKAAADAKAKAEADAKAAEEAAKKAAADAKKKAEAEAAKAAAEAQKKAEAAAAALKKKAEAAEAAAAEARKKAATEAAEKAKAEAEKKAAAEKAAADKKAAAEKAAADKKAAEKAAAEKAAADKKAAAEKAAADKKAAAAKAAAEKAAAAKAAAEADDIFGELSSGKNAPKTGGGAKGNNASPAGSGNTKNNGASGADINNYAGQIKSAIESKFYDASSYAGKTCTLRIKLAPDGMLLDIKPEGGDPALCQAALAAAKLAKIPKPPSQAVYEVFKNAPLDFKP

Variants of: B1
Conditions: with tola_ecoli tolA

Row | Variant | effect of a mutation on the interaction
1 | Y58A | disrupting interaction
